The record followed here is publication PMC1307573.

Format in all cases: biochemical, Drosophila melanogaster
Substrate in data set [1]: Nc1nc2c(ncn2[C@@H]2O[C@H](COP(=O)(O)OP(=O)(O)OP(=O)(O)O)[C@@H](O)[C@H]2O)c(=O)[nH]1
Substrate in data set [2]: Nc1nc2c(ncn2[C@@H]2O[C@H](COP(=O)(O)OP(=O)(O)OP(=O)(O)O)[C@@H](O)[C@H]2O)c(=O)[nH]1
The source holds these as a separate data set.

Substrate in data set [3]: Nc1nc2c(ncn2[C@@H]2O[C@H](COP(=O)(O)OP(=O)(O)OP(=O)(O)O)[C@@H](O)[C@H]2O)c(=O)[nH]1
This is another data set of the same source.

Substrate in data set [4]: Nc1nc2c(ncn2[C@@H]2O[C@H](COP(=O)(O)OP(=O)(O)OP(=O)(O)O)[C@@H](O)[C@H]2O)c(=O)[nH]1
This is another data set of the same source.

Like-named read-outs stand apart in the source and are kept apart here.

B1: Gycα-99B/β-100B (Drosophila melanogaster) (protein)
chain 1: MACPFFRRADSLTRQPSVIAEPGGHWALEDEELSDDALTLTHLQMAIQLLTAPSNEDLNTAVTSLVAKYRQNWPNIHKLKLDPQTFKSCANYDYLADIQELLLKMDEASASEILVLLGEELITCCCTGIIERAFRCLGTDLQEFLGSLDGVYDVLKLQEEDVTDTGFVCAGEGELIFTSERPVIAWLLLGSLKALTRMLYKVDVNIKIEPVEGDARRYRYLFSLVKDNSQTMLMGRPTSVSKTIPETVQRSNSSNASDLQMNSSSFCKMFPWHFIMNEQLELVQLGRGFSKLYKPYMADFGCQATTYFDFKRPKGLTMKFRDIVRRTYTPFLIGLNNPPGAVDFPAIGLEIKGQMVHCPESNSLLFIGSPFLDGLDGLTCNGLFISDIPLHDATREVILVGEQARAQDGLRRRMDKIKNSIEEANSAVTKERKKNVSLLHLIFPAEIAEKLWLGSSIDAKTYPDVTILFSDIVGFTSICSRATPFMVISMLEGLYKDFDEFCDFFDVYKVETIGDAYCVASGLHRASIYDAHKVAWMALKMIDACSKHITHDGEQIKMRIGLHTGTVLAGVVGRKMPRYCLFGHSVTIANKFESGSEALKINVSPTTKDWLTKHEGFEFELQPRDPSFLPKEFPNPGGTETCYFLESFRNPALDSELPLVEHINVSMKTISEGGDA
chain 2: MYGFVNYALELLVLKHFGEEIWEKIKKKAMVSMEGQFLVRQIYDDEITYNLIGAAVEILNIPADDILELFGKTFFEFCQDSGYDKILQVLGATPRDFLQNLDALHDHLGTLYPGMRAPSFRCTEKDGELLLHYYSERPGLEHIVIGIVKAVASKLHGVEVEIDIVKRKGEPIDEAEKERAIARENQQLLEDAVATTTTGSATVVLAPSSDAERNNNHNGSNGSNNNGMANNGNTVNVNNNNDGQQIASETDPSIALSTCPIAQDSFDCDGDKEQKCLRLLKNKSDDIERYDHVQFLIREINVAAKSQVDAKKDEVPDDMEFLCEAPLISPATFCKVFPFHLMFDRQMKIVQAGKAVSRVIPRVAEENCSLIEVVEAIRPHLQLNFENILSHINTIYVLQTRQGAMSSRHEQRFLRLKGQMMYIPETDRILFQCYPSVMNLDDLTKKGLYISDVPLHDAARDLVLLSEKFEAEYKLTKNLEMLTDKLQQTFRDLESEKQKTDRLLYSVLPKSVANELRHQRPVPPKRYDSVTLMFSGIVGFGQYCAANTDPDGAMKIVKMLNELYTVFDALTDSKRNLNVYKVETVGDKYMAVSGLPDHCEDHAKCMARVALDMMDMAKNVKMGSNPVQITIGIHSGEVVTGVIGNRVPRYCLFGNTVNLTSRTETTGVPGRINVSEETYRLLCMAINQDDSFHLEYRGPVIMKGKPTPMDCWFLTRATSSILGGTSSTGGSGGGGNGSLDSPLLQPATPTAGAATPIPVVAQRAAGHASVSRTSSAGGGGGGAVVGT
Broadly, the Km is the concentration of substrate that gives half-maximal velocity. For the protein B1, the Michaelis constant (Km) came to 370 ± 60 µM in data set [1] (other: in the presence of Mg2+) and 31 ± 8 µM in data set [1] (other: in the presence of Mn2+). Also, the results for the Vmax in data set [1] (other: in the presence of Mg2+) and in data set [1] (other: in the presence of Mn2+) were 2.11 ± 0.10 pmoles cGMP/min/mg protein and 204 ± 10.6 pmoles cGMP/min/mg protein, respectively.

B2: Gyc-88EL (Drosophila melanogaster) (protein)
chain: MYGLLLENLSEYIKSVYGEEKWEDIRRQAGIDSPSFSVHQVYPENLLQKLAKKAQQVLGVSERDFMDQMGVYFVGFVGQYGYDRVLSVLGRHMRDFLNGLDNLHEYLKFSYPRMRAPSFICENETKQGLTLHYRSKRRGFVYYTMGQIREVARYFYHKEMHIELVREEILFDTVHVTFQLTFDNRAFTLASLAMTREEKHLPISAHVLFEIFPFCMVFGADMVVRSIGNSLMVILPELLGKKITAWFDLVRPLIAFKFQTILNRTNNIFELVTVDPVTERFDVQNEDLLQHEDGSEPEKSLRLKGQMVYMENWRMIMFLGTPVMPDLTSLITTGLYINDLSMHDFSRDLMLAGTQQSVELKLALDQEQQKSKKLEESMRLLDEEMRRTDELLYQMIPKQVADRLRRGENPIDTCEMFDSVSILFSDIVTFTEICSRITPMEVVSMLNAMYSIFDKLTERNSVYKVETIGDAYMVVAGAPDKDANHAERVCDMALDMVDAITDLKDPSTGQHLRIRVGVHSGAVVAGIVGLKMPRYCLFGDTVNTASRMESTSIAMKVHISESTKVLIGPNYKIIERGEIDVKGKGTMGTYWLEERENRLPLQLTAALQVHPLSPVPPTPTPKTKAIMPPVSKPLTPMMPVSVSLAASMPTSNVPAVDVMASSSSISGLALTAAAAAHMSLHHQAVVAEALTGASVEVALPSVASGATGAAAGGGAPSDDRNSRIYSPVTFKDVARRSVANSPVRSCAQPDQERRRESRSNSTGHVFMRTPSEIFGSLILDTEEFLEDLQISRSSLANNNNNQSPCGFSPTPPFRIGSAPPKPRPSNPDKFTPEELAAMDQLTPPSTAPARETASCSSASLDRDKATKLKKITFSNSSSLDATTPTALAAVVCPMRTKSPPMAVAPVMHMVQASTSKGDGQRPGSKDSVSSISLHSPPPHRSNSAPARPHSMSKAARKAFLAAKQTKAMEKLDKMIEEVQEVESQSVAKAANMRLALYGHDGGGDLAAGGCPLFLPPPPQQQQQQQQSLMPSSISDSGLCSHGHSHAPSCHHMDPKMTNSQSFQHSPRGGITHQCCSGFGHGNGRHSHRMHSNACRIL
In the case of B2, in data set [2] (other: in the presence of Mg2+), the Michaelis constant (Km) was 1730 ± 1300 µM and the Vmax was 1.32 ± 0.33 pmoles cGMP/min/mg protein. In data set [2] (other: in the presence of Mn2+), the Km turned out to be 32 ± 11 µM and the Vmax was 2.26 ± 0.16 pmoles cGMP/min/mg protein.

B3: Gyc-88EL/89Db (Drosophila melanogaster) (protein)
chain 1: MYGLLLENLSEYIKSVYGEEKWEDIRRQAGIDSPSFSVHQVYPENLLQKLAKKAQQVLGVSERDFMDQMGVYFVGFVGQYGYDRVLSVLGRHMRDFLNGLDNLHEYLKFSYPRMRAPSFICENETKQGLTLHYRSKRRGFVYYTMGQIREVARYFYHKEMHIELVREEILFDTVHVTFQLTFDNRAFTLASLAMTREEKHLPISAHVLFEIFPFCMVFGADMVVRSIGNSLMVILPELLGKKITAWFDLVRPLIAFKFQTILNRTNNIFELVTVDPVTERFDVQNEDLLQHEDGSEPEKSLRLKGQMVYMENWRMIMFLGTPVMPDLTSLITTGLYINDLSMHDFSRDLMLAGTQQSVELKLALDQEQQKSKKLEESMRLLDEEMRRTDELLYQMIPKQVADRLRRGENPIDTCEMFDSVSILFSDIVTFTEICSRITPMEVVSMLNAMYSIFDKLTERNSVYKVETIGDAYMVVAGAPDKDANHAERVCDMALDMVDAITDLKDPSTGQHLRIRVGVHSGAVVAGIVGLKMPRYCLFGDTVNTASRMESTSIAMKVHISESTKVLIGPNYKIIERGEIDVKGKGTMGTYWLEERENRLPLQLTAALQVHPLSPVPPTPTPKTKAIMPPVSKPLTPMMPVSVSLAASMPTSNVPAVDVMASSSSISGLALTAAAAAHMSLHHQAVVAEALTGASVEVALPSVASGATGAAAGGGAPSDDRNSRIYSPVTFKDVARRSVANSPVRSCAQPDQERRRESRSNSTGHVFMRTPSEIFGSLILDTEEFLEDLQISRSSLANNNNNQSPCGFSPTPPFRIGSAPPKPRPSNPDKFTPEELAAMDQLTPPSTAPARETASCSSASLDRDKATKLKKITFSNSSSLDATTPTALAAVVCPMRTKSPPMAVAPVMHMVQASTSKGDGQRPGSKDSVSSISLHSPPPHRSNSAPARPHSMSKAARKAFLAAKQTKAMEKLDKMIEEVQEVESQSVAKAANMRLALYGHDGGGDLAAGGCPLFLPPPPQQQQQQQQSLMPSSISDSGLCSHGHSHAPSCHHMDPKMTNSQSFQHSPRGGITHQCCSGFGHGNGRHSHRMHSNACRIL
chain 2: not shown
Turning to B3, in data set [3] (other: in the presence of Mg2+), the Km came out at 890 ± 170 µM and the Vmax is 4.83 ± 0.33 pmoles cGMP/min/mg protein. Besides, in data set [3] (other: in the presence of Mn2+), the Km was 9.4 ± 4.8 µM and the Vmax was 8.72 ± 0.82 pmoles cGMP/min/mg protein.

B4: Gyc-88EL/89Da (Drosophila melanogaster) (protein)
chain 1: MYGLLLENLSEYIKSVYGEEKWEDIRRQAGIDSPSFSVHQVYPENLLQKLAKKAQQVLGVSERDFMDQMGVYFVGFVGQYGYDRVLSVLGRHMRDFLNGLDNLHEYLKFSYPRMRAPSFICENETKQGLTLHYRSKRRGFVYYTMGQIREVARYFYHKEMHIELVREEILFDTVHVTFQLTFDNRAFTLASLAMTREEKHLPISAHVLFEIFPFCMVFGADMVVRSIGNSLMVILPELLGKKITAWFDLVRPLIAFKFQTILNRTNNIFELVTVDPVTERFDVQNEDLLQHEDGSEPEKSLRLKGQMVYMENWRMIMFLGTPVMPDLTSLITTGLYINDLSMHDFSRDLMLAGTQQSVELKLALDQEQQKSKKLEESMRLLDEEMRRTDELLYQMIPKQVADRLRRGENPIDTCEMFDSVSILFSDIVTFTEICSRITPMEVVSMLNAMYSIFDKLTERNSVYKVETIGDAYMVVAGAPDKDANHAERVCDMALDMVDAITDLKDPSTGQHLRIRVGVHSGAVVAGIVGLKMPRYCLFGDTVNTASRMESTSIAMKVHISESTKVLIGPNYKIIERGEIDVKGKGTMGTYWLEERENRLPLQLTAALQVHPLSPVPPTPTPKTKAIMPPVSKPLTPMMPVSVSLAASMPTSNVPAVDVMASSSSISGLALTAAAAAHMSLHHQAVVAEALTGASVEVALPSVASGATGAAAGGGAPSDDRNSRIYSPVTFKDVARRSVANSPVRSCAQPDQERRRESRSNSTGHVFMRTPSEIFGSLILDTEEFLEDLQISRSSLANNNNNQSPCGFSPTPPFRIGSAPPKPRPSNPDKFTPEELAAMDQLTPPSTAPARETASCSSASLDRDKATKLKKITFSNSSSLDATTPTALAAVVCPMRTKSPPMAVAPVMHMVQASTSKGDGQRPGSKDSVSSISLHSPPPHRSNSAPARPHSMSKAARKAFLAAKQTKAMEKLDKMIEEVQEVESQSVAKAANMRLALYGHDGGGDLAAGGCPLFLPPPPQQQQQQQQSLMPSSISDSGLCSHGHSHAPSCHHMDPKMTNSQSFQHSPRGGITHQCCSGFGHGNGRHSHRMHSNACRIL
chain 2: not shown
Regarding B4, in data set [4] (other: in the presence of Mg2+), the Km was found to be 2060 ± 1950 µM and the Vmax is 1.92 ± 0.65 pmoles cGMP/min/mg protein. In data set [4] (other: in the presence of Mn2+), the Km amounted to 149 ± 14 µM and the Vmax is given as 90.1 ± 2.34 pmoles cGMP/min/mg protein.
